Usually stoichiometry N stands for the number of molecules, sites or subunits per partner or assembly.

These results are taken from paper PMC2517984, “TatBC, TatB, and TatC form structurally autonomous units within the twin arginine protein transport system of Escherichia coli” (Febs Letters, 2007).

Data set [1] deals with the molecule itself. The data set can be described thus: native gel or EMSA; BN-PAGE (4-16% gradient) of TatCHis variants purified in digitonin from the Tat wild-type strain C43(DE3); Coomassie stained.
Data set [2] addresses T1, TatC with a hexa-histidine tag on the C-terminus, co-produced with TatB (with or without TatA, TatD, TatE) (Escherichia coli, UniProt P69423 1-258).
T1 construct: TatC, integral membrane protein of the Escherichia coli Tat system; protomer molecular weight printed as 28.9 kDa; The printed protomer weight of 28.9 kDa fits the whole TatC protein; also called TatCHis; TatCHis of Tat(A)BCHis; source: E. coli strain DADE (MC4100 ΔtatABCDΔtatE), overproduced from pFAT75CH (TatABCHisDE) or pFAT75CHΔA (TatBCHis); digitonin-solubilized membranes; not shown: His6, …
T1 sequence (looked up): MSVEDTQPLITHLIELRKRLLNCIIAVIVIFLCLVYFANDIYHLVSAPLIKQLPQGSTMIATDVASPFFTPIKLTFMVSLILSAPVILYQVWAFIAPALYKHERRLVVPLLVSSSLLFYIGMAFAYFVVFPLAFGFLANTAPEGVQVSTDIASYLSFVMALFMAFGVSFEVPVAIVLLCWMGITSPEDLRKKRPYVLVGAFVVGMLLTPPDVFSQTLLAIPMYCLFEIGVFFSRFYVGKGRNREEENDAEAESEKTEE
The experiment in a line: co-purification by Ni(II) affinity chromatography + SEC; TatCHis-containing complexes from digitonin-solubilized membranes of strain DADE producing TatABCHisDE; Ni(II) HiTrap column, then Superose 6 in 20 mM MOPS-HCl pH 7.2, 200 mM NaCl, 0.1% digitonin; peak fraction on SDS-PAGE, Coomassie. Conditions: partners not purified.

Data set [3] deals with the molecule itself. The data set can be described thus: native gel or EMSA; BN-PAGE (5-18% gradient) of digitonin-solubilized whole membranes of strain DADE overproducing TatBHis, TatABCHisDE or TatBCHis; immunoblot with anti-TatB or anti-His tag.

B1: TatC with a hexa-histidine tag on the C-terminus, produced alone from pFAT588 (natural protein, Escherichia coli (strain MC4100), UniProt P69423 1-258, looked up)
chain: MVSVEDTQPLITHLIELRKRLLNCIIAVIVIFLCLVYFANDIYHLVSAPLIKQLPQGSTMIATDVASPFFTPIKLTFMVSLILSAPVILYQVWAFIAPALYKHERRLVVPLLVSSSLLFYIGMAFAYFVVFPLAFGFLANTAPEGVQVSTDIASYLSFVMALFMAFGVSFEVPVAIVLLCWMGITSPEDLRKKRPYVLVGAFVVGMLLTPPDVFSQTLLAIPMYCLFEIGVFFSRFYVGKGRNREEENDAEAESEKTEE
notes: TatC, Escherichia coli; tatC gene amplified from chromosomal DNA of strain MC4100, cloned NcoI/BglII into pQE60; protomer molecular weight printed as 28.9 kDa; also called TatCHis; source: E. coli strain C43(DE3) or its ΔtatABC derivative C43ΔTat(DE3), overproduced from pFAT588; digitonin-solubilized membranes; not shown: His6, C-terminal, kept
For B1, the “stoichiometry N” value in data set [1] is ≤ 7.

B2: TatB, untagged, co-produced with TatCHis (natural protein, Escherichia coli, UniProt P69425 1-171, looked up)
chain: MFDIGFSELLLVFIIGLVVLGPQRLPVAVKTVAGWIRALRSLATTVQNELTQELKLQEFQDSLKKVEKASLTNLTPELKASMDELRQAAESMKRSYVANDPEKASDEAHTIHNPVVKDNEAAHEGVTPAAAQTQASSPEQKPETTPEPVVKPAADAEPKTAAPSPSSSDKP
notes: TatB, integral membrane protein of the Escherichia coli Tat system; protomer molecular weight printed as 18.4 kDa; source: E. coli strain DADE (MC4100 ΔtatABCDΔtatE), overproduced from pFAT75CH or pFAT75CHΔA; digitonin-solubilized membranes
On to B2, for which the binding result in data set [2] is on record as “binds”.

B3: TatB with a C-terminal hexa-histidine tag (natural protein, Escherichia coli, UniProt P69425 1-171, looked up)
chain: MFDIGFSELLLVFIIGLVVLGPQRLPVAVKTVAGWIRALRSLATTVQNELTQELKLQEFQDSLKKVEKASLTNLTPELKASMDELRQAAESMKRSYVANDPEKASDEAHTIHNPVVKDNEAAHEGVTPAAAQTQASSPEQKPETTPEPVVKPAADAEPKTAAPSPSSSDKP
notes: TatB, integral membrane protein of the Escherichia coli Tat system; protomer molecular weight printed as 18.4 kDa; Produced in the absence of any other Tat components; detected with anti-TatB serum; also called TatBHis; source: E. coli strain DADE (MC4100 ΔtatABCDΔtatE), overproduced from pFAT586; digitonin-solubilized membranes
Take B3: the “stoichiometry N” value in data set [3] is ≤ 4.
